Measurements as given in the nanobody polyreactivity screen of Harvey et al. (2022).

Experiment: yeast display, Sf9 membrane polyspecificity reagent, FACS + sequencing; frameworks hold sequencing errors
How it was run: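 In a synthetic yeast display library (Saccharomyces cerevisiae BJ5465), nanobody expression was induced with galactose for 36–48 hours. FACS gates were set low and high (top ~1%) using anti-HA fluorescence for expression and streptavidin fluorescence for binding of the Sf9 membrane reagent. Each polyreactivity label is drawn from the gate of origin.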

| Sequence | polyreactivity (PSR sort gate) |
| --- | --- |
| QVHLVESGGGLVQAGGSLRLSCAASGILRLNAMGWYRQAPGKEREFVATISRSGGITYYADSVKGRFTISRDNAKNTVYLQMNSLKPEDTAVYYCAKGGYSLYGYWGQGTQVTVSS | high polyreactivity |
| QVQLVESGGGLVQAGGSLRLSCAASGRIFSSYAMGWYRQAPGKERELVAAIRYDAGSTYYADSVKGRFTISRDHAKNTVYLQMNSLKPEDTAVYYCAARIYFEQWSWYGYWGQGTQVTVSS | high polyreactivity |
| QVQLVESGGGLVQAGGSLRLSCAASGFTFDKYAMGWYRQAPGKERELVAAITQNGGSTNYADSVKGRFTISRDNAKNTVYLQMNSLKPEDTAVYYCATRSSYLSYVSRMYYWGQGTQVTVSS | high polyreactivity |
| QVQLVESGGGLVQAGGSLRLSCAASGRIFGLNAMGWSRQAPGKERELVASITYSGGSTYYADSVKGRFTISRDNAKNTVYLQMNSLKPEDTAVYYCAARIIVDDVGTKYYYWGQGTQVTVSS | high polyreactivity |
| QVQLVESGGGLVQAGGSLRLSCAASGFTFEYNDMGWYRQAPGKERELVASISYDSDSTYYAVSVKGRFTISRDNAKNTVYLQMNSLKPEDTAVYYCNAGSSYHEYGYWGQGTQVTVSS | high polyreactivity |
| QVQIVESGGGLVQAGGSLRLSCPASGSTFTRYPMGWYSQAPGKERELVAAISYSGSSTYYADSVKGRFTISRDNAKNTVYLEMICLIPEDTAVYYCAAGKQAPAVNYGYYYWGQCTQVTVSS | low polyreactivity |
| QVQLVESGGGLVQAGGSLRLSCAASGSIFDSYAMGWYRQAPGKERELVAGIDSTGDTSYADSVKGRFTISRDNAKNTVYLQMNSLKPEDTAVYYCAKEYPGDSVQASDEPWGMGYWGQGTQVTVSS | low polyreactivity |
| QVQLVESGGGLVQAGGSLRLSCAASGSIFLAYAMGWYRQAPGKERELVAAITAGTGSTYYADSVKGRFTISRDNAKNTVYLQMNSLKPEDTAVYYCAKAVSLFRGPFSSFDYWGQGTQVTVSS | low polyreactivity |
| QVQHVESGGGLVQAGGSLRLSCAASGRIFYAYTMGWYRQAPGKERELGAAISRSGSTYYADSVKGRFTISRDNAKNPVYLQMNSLKPEDTAVYYCAADVTGGRKYDYWGQGTQVTVSS | low polyreactivity |
| QVQLVESAGGLVQAGGSLRLSCAASGSIFPLYAMGWYRQAPGKERELVAAISYSGGRTYYADSVKGRFTISRDNAKNTVYLQMNSLKPEDTAVYYCNTRQRVIDDYWGQGTQVTVSS | high polyreactivity |
| QVQLVESGGGLVQAGGSLRLSCAASGSTFRRNAMGWYRQAPGKERELVAAISTSGGTTYYADSVKGRFTISRDNAKNTVYLQMNSLKPEDTAVYYCNKGGISGRDYWGLGTQVTVSS | high polyreactivity |
| QVQLVESGGGLVQAGGSLRLSCAASGFIFPDNVMGWYRQAPGKERELVAAISRSGGSTYYADSVKGRFTISRDNAKNTVYLQMNSLKPEDTAVYYCAVKFVRYRQGIVLYDYWGQGTQVTVSS | high polyreactivity |
| QVQLVETGRGLVQAGGSLRLICAASGRTFGYYAMGWYRQAPGKEREFVAAISHSAGSTSYADSVKGRFTISRDNAKNTVYLQMNSLKPEDTAVFYFAAEICYLSVPRYDYWGQGTQVTVSS | low polyreactivity |
| QVHLVESGGGLVQAGGSLRLSCAASGSTFTLNTMGWYRQAPGKERELVAGIRSGGSTYYADSVKGRFTISRDNAKNTVYLQMNSLKPEDTAVYYCAADRRWFAYWFDYWGQGTQVTVSS | low polyreactivity |
| QVQLVESGGGLVQAGGSLRLSCAASGGIISSYVMGWYRQAPGKERELVAAISRSGGSTYYADSVKGRFTISRDNAKNTVYLQMNSLKPEDTAVYFCAAVLQTRYNYWGQGTQVTVSS | high polyreactivity |
| QVQLVESGGGLVQAGGSLRLSCAASGSTLRRYAMGWYRQAPGKERELVAAISGTGSRTYYADSVKGRFTISRDNAKNTVYLQMNSLKPEDTAVYYCNASPYRLTENDYWGQGTQVTVSS | high polyreactivity |
